Test results: PMC12610408, “An Unbiased Cell‐Culture Selection Yields DNA Aptamers as Novel Senescent Cell‐Specific Reagents”

Molecular target: fibronectin (native, purified from mouse plasma) (mouse, UniProt P11276 33-2477)
Assay: BLI; BLI: streptavidin biosensors, biotinylated aptamer (500 nM) immobilized, fibronectin analyte, 1x Octet Kinetics Buffer, 30 C, 1:1 fit; pull-down: streptavidin Dynabeads M-270, beads washed in PBS + 5 mM MgCl2
Details: protein: native; chain copies: 2; label: 5' 6-FAM; 3' BioTEG

Chain of fibronectin (native, purified from mouse plasma) (P11276 33-2477): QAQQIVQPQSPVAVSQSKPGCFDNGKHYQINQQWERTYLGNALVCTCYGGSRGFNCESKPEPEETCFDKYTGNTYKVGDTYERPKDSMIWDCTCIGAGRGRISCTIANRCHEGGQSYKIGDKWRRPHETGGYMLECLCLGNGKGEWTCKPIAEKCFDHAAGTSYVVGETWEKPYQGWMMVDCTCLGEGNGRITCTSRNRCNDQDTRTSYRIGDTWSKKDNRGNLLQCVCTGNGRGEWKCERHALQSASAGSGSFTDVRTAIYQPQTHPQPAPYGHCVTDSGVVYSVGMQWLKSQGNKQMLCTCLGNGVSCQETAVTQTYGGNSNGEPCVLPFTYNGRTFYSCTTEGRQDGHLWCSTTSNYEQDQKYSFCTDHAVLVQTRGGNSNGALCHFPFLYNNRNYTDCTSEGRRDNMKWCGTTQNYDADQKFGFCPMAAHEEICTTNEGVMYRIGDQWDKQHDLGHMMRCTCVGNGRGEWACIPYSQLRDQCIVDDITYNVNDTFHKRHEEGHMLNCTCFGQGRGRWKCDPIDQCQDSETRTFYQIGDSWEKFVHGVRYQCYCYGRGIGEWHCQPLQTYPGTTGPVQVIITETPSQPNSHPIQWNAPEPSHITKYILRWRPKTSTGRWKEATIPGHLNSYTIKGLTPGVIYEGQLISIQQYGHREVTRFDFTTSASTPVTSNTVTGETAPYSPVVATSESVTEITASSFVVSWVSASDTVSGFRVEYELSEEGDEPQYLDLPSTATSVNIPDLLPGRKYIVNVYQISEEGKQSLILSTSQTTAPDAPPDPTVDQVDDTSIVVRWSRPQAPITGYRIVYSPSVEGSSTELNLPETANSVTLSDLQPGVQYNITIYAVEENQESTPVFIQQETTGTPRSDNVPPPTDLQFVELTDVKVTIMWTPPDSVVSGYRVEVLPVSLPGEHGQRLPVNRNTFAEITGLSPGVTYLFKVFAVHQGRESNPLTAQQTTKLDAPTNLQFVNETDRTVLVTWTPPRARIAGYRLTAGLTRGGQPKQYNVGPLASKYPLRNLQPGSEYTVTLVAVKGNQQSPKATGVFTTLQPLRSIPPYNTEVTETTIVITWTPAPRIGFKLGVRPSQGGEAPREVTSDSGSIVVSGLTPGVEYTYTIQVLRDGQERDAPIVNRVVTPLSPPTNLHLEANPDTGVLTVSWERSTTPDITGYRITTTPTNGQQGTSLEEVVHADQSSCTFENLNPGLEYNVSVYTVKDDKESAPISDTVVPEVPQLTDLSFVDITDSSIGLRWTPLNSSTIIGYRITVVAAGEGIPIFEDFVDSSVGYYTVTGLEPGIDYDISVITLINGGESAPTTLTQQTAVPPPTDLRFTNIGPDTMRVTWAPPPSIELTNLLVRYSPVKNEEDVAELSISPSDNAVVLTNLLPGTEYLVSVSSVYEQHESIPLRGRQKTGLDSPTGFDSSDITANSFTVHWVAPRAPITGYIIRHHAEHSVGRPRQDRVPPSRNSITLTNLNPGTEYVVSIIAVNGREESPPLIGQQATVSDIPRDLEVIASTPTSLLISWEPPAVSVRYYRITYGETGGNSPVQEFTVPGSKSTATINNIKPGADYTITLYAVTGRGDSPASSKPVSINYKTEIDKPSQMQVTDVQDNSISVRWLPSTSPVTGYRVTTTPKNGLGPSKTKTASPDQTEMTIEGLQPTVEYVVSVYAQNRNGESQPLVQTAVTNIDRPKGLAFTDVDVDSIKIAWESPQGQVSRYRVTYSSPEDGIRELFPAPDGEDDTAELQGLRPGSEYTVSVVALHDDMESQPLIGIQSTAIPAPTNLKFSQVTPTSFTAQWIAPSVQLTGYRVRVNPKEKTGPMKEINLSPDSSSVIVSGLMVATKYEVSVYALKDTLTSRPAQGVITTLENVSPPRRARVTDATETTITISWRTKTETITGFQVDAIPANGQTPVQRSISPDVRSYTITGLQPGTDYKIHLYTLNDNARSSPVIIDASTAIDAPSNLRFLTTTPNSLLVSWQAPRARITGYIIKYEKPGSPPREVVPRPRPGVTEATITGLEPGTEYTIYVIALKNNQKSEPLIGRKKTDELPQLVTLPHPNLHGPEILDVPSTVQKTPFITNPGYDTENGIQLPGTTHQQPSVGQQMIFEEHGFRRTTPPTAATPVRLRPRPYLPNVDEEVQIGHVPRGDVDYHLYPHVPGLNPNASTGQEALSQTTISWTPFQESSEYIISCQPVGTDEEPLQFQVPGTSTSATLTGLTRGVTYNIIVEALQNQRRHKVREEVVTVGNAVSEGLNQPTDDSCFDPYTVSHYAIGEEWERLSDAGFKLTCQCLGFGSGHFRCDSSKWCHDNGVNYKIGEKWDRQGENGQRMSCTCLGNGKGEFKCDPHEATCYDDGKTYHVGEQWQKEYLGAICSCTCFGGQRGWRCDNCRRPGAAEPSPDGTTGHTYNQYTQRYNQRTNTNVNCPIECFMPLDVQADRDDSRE

Binder	binding result	Kd
negative control oligonucleotide 6766 (ssDNA) DNA: TGCGTATTGACACATGCGTGCTTGTTATATAACGTGTCATAGCGTCCAAAAAGAAGTACACAGGCATAGGTATGGGCTTT	no binding	–
aptamer 6756 (ssDNA) DNA: TGCGTATTGACACATGCGTGAAACGGACTTTTATTAGACAAATAATGCATGTCTCGAATTCAGGCATAGGTATGGGCTTT	–	0.921 nM
aptamer 6762 (ssDNA) DNA: TGCGTATTGACACATGCGTGGCTTAATGCAATCCATCTGTTGCATTTTTCTAAACGTCGCCAGGCATAGGTATGGGCTTT	–	0.579 nM
